Source: publication PMC4689616 (Nature cell biology, 2015)

T1: TTC7B(9-843) (UniProt Q86TV6 9-843)
T1 sequence: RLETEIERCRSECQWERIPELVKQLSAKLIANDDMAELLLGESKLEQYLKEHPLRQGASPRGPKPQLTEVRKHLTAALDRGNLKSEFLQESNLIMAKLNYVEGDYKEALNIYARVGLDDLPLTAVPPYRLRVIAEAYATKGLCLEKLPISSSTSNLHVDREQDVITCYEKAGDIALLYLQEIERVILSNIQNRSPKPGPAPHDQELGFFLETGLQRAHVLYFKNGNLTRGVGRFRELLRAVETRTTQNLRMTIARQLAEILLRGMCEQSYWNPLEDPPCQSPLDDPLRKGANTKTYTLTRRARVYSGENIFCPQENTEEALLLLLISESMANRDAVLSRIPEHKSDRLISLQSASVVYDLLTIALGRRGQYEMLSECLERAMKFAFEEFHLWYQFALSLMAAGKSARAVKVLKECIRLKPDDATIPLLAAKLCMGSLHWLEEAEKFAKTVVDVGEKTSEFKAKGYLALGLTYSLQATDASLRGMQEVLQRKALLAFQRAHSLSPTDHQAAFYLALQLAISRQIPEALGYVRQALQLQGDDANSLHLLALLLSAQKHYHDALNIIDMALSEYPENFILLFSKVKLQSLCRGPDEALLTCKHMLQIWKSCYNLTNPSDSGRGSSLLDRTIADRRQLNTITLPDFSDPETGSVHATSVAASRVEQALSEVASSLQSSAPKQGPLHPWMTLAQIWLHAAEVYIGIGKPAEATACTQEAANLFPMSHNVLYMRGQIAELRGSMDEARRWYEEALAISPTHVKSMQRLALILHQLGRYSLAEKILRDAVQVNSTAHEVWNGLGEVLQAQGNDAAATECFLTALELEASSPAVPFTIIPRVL


Key:
TTC7B(9-843) = target: T1, TTC7B(9-843); assay: SEC
[1] = target: 3xFLAG-PI4KIIIα (wild-type) (UniProt P42356-1 1-2102); assay: pull-down

| binding result (TTC7B(9-843)) | binding result [1] | Binder |
| --- | --- | --- |
| binds | – | FAM126A(2-308) (domain or fragment) FTSEKGVVEEWLSEFKTLPETSLPNYATNLKDKSSLVSSLYKVIQEPQSELLEPVCHQLFEFYRSGEEQLLQFTLQFLPELIWCYLAVSASRNVHSSGCIEALLLGVYNLEIVDKQGHTKVLSFTIPSLSKPSVYHEPSSIGSMALTESALSQHGLSKVVYSGPHPQREMLTAQNRFEVLTFLLLCYNAALTYMPSVSLQSLCQICSRICVCGYPRQHVRKYKGISSRIPVSSGFMVQMLTGIYFAFYNGEWDLAQKALDDIIYRAQLELYPEPLLVANAIKASLPHGPMKSNKEGTRCIQVEITPT |
| – | binds | GST-FAM126A-N/TTC7B dimer (complex) chain 1: FTSEKGVVEEWLSEFKTLPETSLPNYATNLKDKSSLVSSLYKVIQEPQSELLEPVCHQLFEFYRSGEEQLLQFTLQFLPELIWCYLAVSASRNVHSSGCIEALLLGVYNLEIVDKQGHTKVLSFTIPSLSKPSVYHEPSSIGSMALTESALSQHGLSKVVYSGPHPQREMLTAQNRFEVLTFLLLCYNAALTYMPSVSLQSLCQICSRICVCGYPRQHVRKYKGISSRIPVSSGFMVQMLTGIYFAFYNGEWDLAQKALDDIIYRAQLELYPEPLLVANAIKASLPHGPMKSNKEGTRCIQVEITPT chain 2: RLETEIERCRSECQWERIPELVKQLSAKLIANDDMAELLLGESKLEQYLKEHPLRQGASPRGPKPQLTEVRKHLTAALDRGNLKSEFLQESNLIMAKLNYVEGDYKEALNIYARVGLDDLPLTAVPPYRLRVIAEAYATKGLCLEKLPISSSTSNLHVDREQDVITCYEKAGDIALLYLQEIERVILSNIQNRSPKPGPAPHDQELGFFLETGLQRAHVLYFKNGNLTRGVGRFRELLRAVETRTTQNLRMTIARQLAEILLRGMCEQSYWNPLEDPPCQSPLDDPLRKGANTKTYTLTRRARVYSGENIFCPQENTEEALLLLLISESMANRDAVLSRIPEHKSDRLISLQSASVVYDLLTIALGRRGQYEMLSECLERAMKFAFEEFHLWYQFALSLMAAGKSARAVKVLKECIRLKPDDATIPLLAAKLCMGSLHWLEEAEKFAKTVVDVGEKTSEFKAKGYLALGLTYSLQATDASLRGMQEVLQRKALLAFQRAHSLSPTDHQAAFYLALQLAISRQIPEALGYVRQALQLQGDDANSLHLLALLLSAQKHYHDALNIIDMALSEYPENFILLFSKVKLQSLCRGPDEALLTCKHMLQIWKSCYNLTNPSDSGRGSSLLDRTIADRRQLNTITLPDFSDPETGSVHATSVAASRVEQALSEVASSLQSSAPKQGPLHPWMTLAQIWLHAAEVYIGIGKPAEATACTQEAANLFPMSHNVLYMRGQIAELRGSMDEARRWYEEALAISPTHVKSMQRLALILHQLGRYSLAEKILRDAVQVNSTAHEVWNGLGEVLQAQGNDAAATECFLTALELEASSPAVPFTIIPRVL |
